Experimental data as given in the RNAGym collection of RNA variant scans (doi:10.1073/pnas.2313332121).

B1: TPR t1 (parent)
chain: GACCAAUCUGCCCUCAGAGCUCGAGAACAUCUUCGGAUGCAGAGGAGGCAGGCUUCGGUGGCGCGAUAGCGCCAACGUCCUCAACCUCCAAUGCAUCCCACCACAUGAUGAUGCCUGAAGAGCCUUGGUUUUUUG

Variants of: B1
Assay: polymerase ribozyme fitness, log enrichment relative to wild type (log ratio); higher = more active; in vitro selection for triplet polymerase activity
Outline: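 Mutant libraries were PCR-built and transcribed for each subunit of a heterodimeric triplet polymerase ribozyme and selected for one round in triplicate at −7 °C, frozen, before gel excision of extended constructs and streptavidin-bead capture. Input and output libraries were Illumina-sequenced, keeping genotypes with ≥10 input reads and ≥1 read per output. Fitness is a logarithmic ratio of genotype to wild-type enrichment, in base 2, using inverse-variance-weighted replicate averages.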

**Q.** Which “polymerase ribozyme fitness (log ratio)” value does the source give for GACCAAUCUGCCCUCAGAGCUCGAGAACAUCGUCGGAUGCAGAGGAGGCAGGCUUUGGUGGCGCGAUAGCGCCAACGUCCUCAACCUCCAAUGCAUCCCACCACAUGAAGAUGCCUGAAGAGCUUUGGUUUUUUG here?
**A.** The value was -6.14.

**Q.** Which “polymerase ribozyme fitness (log ratio)” value does the source give for GACCAAUCUGCCCUCAGAGCUCGAGAACAUCCUCGGAUGCAGAGGAGGCAGGCUUCGGUGGCGCGAUAGCGCCAACGUCCUCGACCACCAAUGCAUCCCACCACAAGAUGAUGCCUGAAGAGCCUUGGUUUUUUG here?
**A.** The value was -2.71.

**Q.** With GACCAAUCUGCCCUCAGAGCUCGAGAACAUUUUCGGAUGCAGAGGAGGCAGGCUUCGGUGGCGCGAUAGCGCCAACGUCCUCAACCUCCAAUGCAUCCCACCACAUGAUGAAACCUGAAGAGCCUUGGUUUUUUG as the variant, how does the “polymerase ribozyme fitness (log ratio)” value read?
**A.** The value was -4.76.

**Q.** Which “polymerase ribozyme fitness (log ratio)” value does the source give for GACCAAUCUGCCCUCAGAGCUCGAGAACAUCUACGGAUGCAGAGGAGGCUGGCUUCGGUGGCGCGAUAGCGCCAACGUCCUCAACCUCCAAUCCGUCCCAGCACAUGAUGAUGCCUGAAGAGCCUUGGUUUUUUG here?
**A.** Its value is -7.02.

**Q.** For GACCAAUCUGCCCUCAGAGCUCGAGAACAUCGUCGGAUGCAGAGGAGGCAGGCUUCGGUGGCGCGAUAGCGCCAACGUCCUCAACCUCCAAUGCAUCCCACCACAUGAUGAUGCCUGAUGAGCCUUGGUUUUUUG, which “polymerase ribozyme fitness (log ratio)” value is on record?
**A.** Its value is -6.21.

**Q.** With GACCAAUCUGCCCUCAGAGCUCGAGAACAUCGUCGGGUGCAGAGGAGGCAGGCUUCGGUGGCGCGAUAGCGCCGACGUCCUCAACCUCCAAUGCAUCCCACCACAUGAUGUUGCCUGAAGAGCCUUGGUUUUCUG as the variant, how does the “polymerase ribozyme fitness (log ratio)” value read?
**A.** The value was -5.3.

**Q.** Which “polymerase ribozyme fitness (log ratio)” value does the source give for GACCAAUCUGCCCUCAGAGCUCGAGAACAUCCUCGGAUACAAAGGAGGCAGACUUCGGUGGCGCGAUAGUGCCAACGUCCUCAACCUGCAAUGCAUCCCACCACAUGAUGAUGCCUGAAGAGCCUUGGUUUUUUG here?
**A.** The value was -3.93.

**Q.** For GACCAAUCUGCCCUCAGAGCUCGAGAACAUCAUCGGAUGCAGAGGAGGCAGGCUUCGGUGGCGCGAUAGCGCCCACGUCCUCAACCUCCAAUGCAUCCCACCACAUGAUGAUGGCUGAAGAGCCUUGGUUUUUUG, which “polymerase ribozyme fitness (log ratio)” value is on record?
**A.** The value was -4.4.

**Q.** For GACCAAUCUGCCCUCAGAGCUCGAGAACAUCCUCGGAUGCAGAGGAGGCAGGCUUCGGUCGCGCGAUAGCGCCAACGUCCUCAACCUCCAAUGCAUCCCACCACAAGAUGAUACCUGAAGAGCUUUGGUUUUUUG, which “polymerase ribozyme fitness (log ratio)” value is on record?
**A.** Its value is -3.04.

**Q.** For GACCAAUCUGCCCUCAGAGCUCGAGAACAUCGUCGGAUGCAGAGGAGGCAGGCUUCGGUGGCGCGAUAGUGCCAACGUCCUCAACCUCCAAUGCAUCCCACCACAUGAUGAUGCCUGAAGAGCCUUGGUUUUUUG, which “polymerase ribozyme fitness (log ratio)” value is on record?
**A.** The value was -7.16.

**Q.** For GACCAAUCUGCCCUCAGAGCUCGAGAACAUCAUCGGAUGCAGAGGAGGCAGGCUUCGGUGUCGCGAUAGCGCCAACGUCCUCAACCUCCAAUGCAUCCCACCACAUGAUGAUGCCUGAAGAGCCUUGGUUUUUUG, which “polymerase ribozyme fitness (log ratio)” value is on record?
**A.** Its value is -2.74.

**Q.** For GACCAAUCUGCCCUCAGAGCUCGAGAACAUCCUCGGAUGCAGAGGAGGCAGGCUUCGGUCGCGCGAUAGCGCCACCGUGCUCAACCUCCAAUGCAUCCCACCACAUGAUGAUGCCUGAAGAGCCUUGGUUUUUUG, which “polymerase ribozyme fitness (log ratio)” value is on record?
**A.** Its value is -1.89.

**Q.** With GACCAAUCUGCCCUCAGAGCUCGAGAACAUCAUCGGAUGCAGAGGUGGCAGGCAUCCCUGGCGCGAUAGUGCCAACGUCCUCAACCUCCAAUGCAUCCCACCACAUGAUGAUGCCUGAAGGGCCUUGGUUUUUUG as the variant, how does the “polymerase ribozyme fitness (log ratio)” value read?
**A.** The value was -6.21.

**Q.** With GACCAAUCUGCCCUCAGAGCUCGAGAACAUCGUCGGAUGCAGAGGAGGAAGGCUUCGGUGGCCCGAUAGCGCCAACGUCCUCAACCUCCAAUGCAUCCCACCACAUGAUGAUGCCUAAAGAGCCUUGGUUUUUUG as the variant, how does the “polymerase ribozyme fitness (log ratio)” value read?
**A.** Its value is -6.8.

**Q.** For GACCAAUCUGCCCUCAGAGCUCGAGAACAUCAUCGGAUGCAGAGGAGGCAGGCUUCGGUGGCGCGAUAGUGCCAACGUCCUCAACCUCCAAUGCAUCCCACCACAUGAUGAUGCGUGAAGAGCCUUGGUUUUUUG, which “polymerase ribozyme fitness (log ratio)” value is on record?
**A.** Its value is -5.23.

**Q.** With GACCAAUCUGCCCUCAGAGCUCGAGAACAUCCUCGGAUGCAGAGGAGGCAGGCUUCGGUGGCGCGAUAGCGCCAACGUCCUCAAGCUCCAAUGCAUCCCACCACAUGAUGAUGCCUGAAGAGCCUUGGUUUUUUG as the variant, how does the “polymerase ribozyme fitness (log ratio)” value read?
**A.** Its value is -2.56.

**Q.** Which “polymerase ribozyme fitness (log ratio)” value does the source give for GACCAAUCUGCCCUCAGAGCUCGAGAACAUCCUCCGAUGCAGAGGAGGCAGGAUUCGGUGGCGCGAUAGCGCCAACGACCUCAACCUCCAAUGCAUCCCACCACAUGAUGAUGCCUGAAGAGCCUUGGUUUUUUG here?
**A.** Its value is -4.25.

**Q.** For GACCAAUCUGCCCUCAGAGCUCGAGAACAUCCUCGGAUGAAGAGGAGGCAGGCUUCGGUGGCGCGAUAGCGCCAACGUCCUCAACCUCCAAUGCAUCCCACCACAUGAUGAUGCCUGAAGAGCCUUGGUUUUUUG, which “polymerase ribozyme fitness (log ratio)” value is on record?
**A.** The value was -0.464.

**Q.** With GACCAAUCUGCCCUCAGAGCUCGAGAACAUCCUCGGAUGCAAAGGAGGCAGGCUUCGGUGGCGCGAUAUCGCCAACGUCCUCAACCUCCAAUGCAUCCCACCACAUGAUGAUGCCUGAAGAGCCUUGGUUUUUUG as the variant, how does the “polymerase ribozyme fitness (log ratio)” value read?
**A.** Its value is -0.00577.

**Q.** With GACCAAUCUGCCCUCAGAGCUCGAGAACAUCAUCGGAUGUAGAGGAGGCAGGCUUCGGUGGCGCGAUAGCGCCAACGUCCUCAACCUCCAAUGCAUCCCACCACAAGAUGAUGCCUGAAGAGCCUUGGUUUUUUG as the variant, how does the “polymerase ribozyme fitness (log ratio)” value read?
**A.** The value was -6.43.

**Q.** With GACCAAUCUGCCCUCAGAGCUCGAGAACAUCAUCGGAUGCAGAGGAGGCAGGCUUCGGUGGCGCGAUAGCGCCAACGUCCUCAACCUGCAAUGCAUCCCACCACAUGAUGAUGCCUGAAGAGCCAUGGUUUUUUG as the variant, how does the “polymerase ribozyme fitness (log ratio)” value read?
**A.** Its value is -5.98.
